The text below walks through data of patent US20250277023A1 (published 2025).

As a reminder, the EC50 is the concentration needed to bring the measured effect to its halfway point.

In test [1] the target is T1, PD-L1 (on CHO-PD-L1 cells) (UniProt Q9NZQ7 19-290). The test is described as follows: FACS binding; Fig. 25. On the technique in general: Flow cytometry measures light scatter and fluorescence of single cells or particles in a stream.
Test [2] deals with T1, PD-L1 (on CHO-PD-L1 cells). In words: FACS binding; Fig. 24.
In test [3] the target is T1, PD-L1 (on CHO-PD-L1 cells). The test is described as follows: FACS binding; Fig. 22.

T1 sequence (Q9NZQ7 19-290): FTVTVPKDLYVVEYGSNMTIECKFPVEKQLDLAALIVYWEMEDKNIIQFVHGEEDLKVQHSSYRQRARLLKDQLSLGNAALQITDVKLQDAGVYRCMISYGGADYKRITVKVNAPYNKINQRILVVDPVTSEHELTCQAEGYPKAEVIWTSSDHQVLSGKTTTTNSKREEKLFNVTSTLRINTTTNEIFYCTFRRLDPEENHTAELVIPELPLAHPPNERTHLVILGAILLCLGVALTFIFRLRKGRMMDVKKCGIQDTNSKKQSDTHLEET

B1: R1110: TIGIT_VH_IL15RA (sushi65 T2A)/TIGIT_VL_IL15/PD-L1-Fab (bispecific antibody)
chain 1: QVQLVQSGAEVKKPGSSVKVSCKASGYSFTSYWMNWVRQAPGQGLEWIGMIRPSDSETRLNQMFKDRVTITVDKSTSTAYMELSSLRSEDTAVYYCAGIHDYGHGAYWGQGTLVTVSSGGGGSGGGGSGGGGSGGGGSGIACPPPMSVEHADIWVKSYSLYSRERYICNSGFKRKAGTSSLTECVLNKATNVAHWTTPSLKCIREPKSSDKTHTCPPCPAPELLGGPSVFLFPPKPKDTLMISRTPEVTCVVVDVSHEDPEVKFNWYVDGVEVHNAKTKPREEQYNSTYRVVSVLTVLHQDWLNGKEYKCKVSNKALPAPIEKTISKAKGQPREPQVYTLPPSREEMTKNQVSLTCRVKGFYPSDIAVEWESNGQPENNYKTTPPVLKSDGSFFLASKLTVDKSRWQQGNVFSCSVMHEALHNHYTQKSLSLSPGK
chain 2: DIQMTQSPSSLSASVGDRVTITCRASENIYSNLAWYQQKPGKSPKLLVYAASHLPDGVPSRFSGSGSGTDYSLTISSLQPEDFATYYCQHFWGTPRTFGQGTKLEIKGGGGSGGGGSGGGGSGGGGSGNWVNVISDLKKIEDLIQSMHIDATLYTESDVHPSCKVTAMKCFLLELQVISLESGDASIHNTVQDLIILANNSLSSNGNVTESGCKECEELEEKNIKEFLQSFVHIVQMFINTS
heavy: QVQLQESGPGLVKPSETLSLTCAVYGDSITSGYWNWIRKPPGKGLEYIGYISYTGSTYQNPSLKSRITMSRDTSKNQYYLKLSSVTAADTAVYYCARSRAWIRTYFDYWGQGTLVTVSSASTKGPSVFPLAPSSKSTSGGTAALGCLVKDYFPEPVTVSWNSGALTSGVHTFPAVLQSSGLYSLSSVVTVPSSSLGTQTYICNVNHKPSNTKVDKRVEPKSCDKTHTCPPCPAPELLGGPSVFLFPPKPKDTLMISRTPEVTCVVVDVSHEDPEVKFNWYVDGVEVHNAKTKPREEQYNSTYRVVSVLTVLHQDWLNGKEYKCKVSNKALPAPIEKTISKAKGQPREPQVYTLPPSREEMTKNQVSLWCLVKGFYPSDIAVEWESNGQPENNYDTTPPVLDSDGSFFLYSDLTVDKSRWQQGNVFSCSVMHEALHNHYTQKSLSLSPGK
light: DIQMTQSPSSLSASVGDRVTITCSVSSSISSSNLHWYQQKPGKAPKPWIYGTSNLASGVPSRFSGSGSGTDYTLTISSLQPEDFATYYCQQWSSYPLTFGQGTKLEIKRTVAAPSVFIFPPSDEQLKSGTASVVCLLNNFYPREAKVQWKVDNALQSGNSQESVTEQDSKDSTYSLSSTLTLSKADYEKHKVYACEVTHQGLSSPVTKSFNRGEC
For the molecule B1, a half-maximal effect in test [1] (EC50) was put at 1.53 nM.

B2: R1109: TIGIT_VH_IL15RA (sushi65)/TIGIT_VL_IL15/PD-L1-Fab (bispecific antibody)
chain 1: QVQLVQSGAEVKKPGSSVKVSCKASGYSFTSYWMNWVRQAPGQGLEWIGMIRPSDSETRLNQMFKDRVTITVDKSTSTAYMELSSLRSEDTAVYYCAGIHDYGHGAYWGQGTLVTVSSGGGGSGGGGSGGGGSGGGGSGITCPPPMSVEHADIWVKSYSLYSRERYICNSGFKRKAGTSSLTECVLNKATNVAHWTTPSLKCIREPKSSDKTHTCPPCPAPELLGGPSVFLFPPKPKDTLMISRTPEVTCVVVDVSHEDPEVKFNWYVDGVEVHNAKTKPREEQYNSTYRVVSVLTVLHQDWLNGKEYKCKVSNKALPAPIEKTISKAKGQPREPQVYTLPPSREEMTKNQVSLTCRVKGFYPSDIAVEWESNGQPENNYKTTPPVLKSDGSFFLASKLTVDKSRWQQGNVFSCSVMHEALHNHYTQKSLSLSPGK
chain 2: DIQMTQSPSSLSASVGDRVTITCRASENIYSNLAWYQQKPGKSPKLLVYAASHLPDGVPSRFSGSGSGTDYSLTISSLQPEDFATYYCQHFWGTPRTFGQGTKLEIKGGGGSGGGGSGGGGSGGGGSGNWVNVISDLKKIEDLIQSMHIDATLYTESDVHPSCKVTAMKCFLLELQVISLESGDASIHNTVQDLIILANNSLSSNGNVTESGCKECEELEEKNIKEFLQSFVHIVQMFINTS
heavy: QVQLQESGPGLVKPSETLSLTCAVYGDSITSGYWNWIRKPPGKGLEYIGYISYTGSTYQNPSLKSRITMSRDTSKNQYYLKLSSVTAADTAVYYCARSRAWIRTYFDYWGQGTLVTVSSASTKGPSVFPLAPSSKSTSGGTAALGCLVKDYFPEPVTVSWNSGALTSGVHTFPAVLQSSGLYSLSSVVTVPSSSLGTQTYICNVNHKPSNTKVDKRVEPKSCDKTHTCPPCPAPELLGGPSVFLFPPKPKDTLMISRTPEVTCVVVDVSHEDPEVKFNWYVDGVEVHNAKTKPREEQYNSTYRVVSVLTVLHQDWLNGKEYKCKVSNKALPAPIEKTISKAKGQPREPQVYTLPPSREEMTKNQVSLWCLVKGFYPSDIAVEWESNGQPENNYDTTPPVLDSDGSFFLYSDLTVDKSRWQQGNVFSCSVMHEALHNHYTQKSLSLSPGK
light: DIQMTQSPSSLSASVGDRVTITCSVSSSISSSNLHWYQQKPGKAPKPWIYGTSNLASGVPSRFSGSGSGTDYTLTISSLQPEDFATYYCQQWSSYPLTFGQGTKLEIKRTVAAPSVFIFPPSDEQLKSGTASVVCLLNNFYPREAKVQWKVDNALQSGNSQESVTEQDSKDSTYSLSSTLTLSKADYEKHKVYACEVTHQGLSSPVTKSFNRGEC
Consider B2, for which the 50% effective concentration (EC50) in test [1] stood at 1.56 nM.

B3: R1111: TIGIT_VH_IL15RA (sushi65 T2A, T81A, T86A)/TIGIT_VL_IL15/PD-L1-Fab (bispecific antibody)
chain 1: QVQLVQSGAEVKKPGSSVKVSCKASGYSFTSYWMNWVRQAPGQGLEWIGMIRPSDSETRLNQMFKDRVTITVDKSTSTAYMELSSLRSEDTAVYYCAGIHDYGHGAYWGQGTLVTVSSGGGGSGGGGSGGGGSGGGGSGIACPPPMSVEHADIWVKSYSLYSRERYICNSGFKRKAGTSSLTECVLNKATNVAHWTTPSLKCIRDPALVHQRPAPPSTVATAGVAPQPESLSPSGKEPAASSPSSNNTAATTAEPKSSDKTHTCPPCPAPELLGGPSVFLFPPKPKDTLMISRTPEVTCVVVDVSHEDPEVKFNWYVDGVEVHNAKTKPREEQYNSTYRVVSVLTVLHQDWLNGKEYKCKVSNKALPAPIEKTISKAKGQPREPQVYTLPPSREEMTKNQVSLTCRVKGFYPSDIAVEWESNGQPENNYKTTPPVLKSDGSFFLASKLTVDKSRWQQGNVFSCSVMHEALHNHYTQKSLSLSPGK
chain 2: DIQMTQSPSSLSASVGDRVTITCRASENIYSNLAWYQQKPGKSPKLLVYAASHLPDGVPSRFSGSGSGTDYSLTISSLQPEDFATYYCQHFWGTPRTFGQGTKLEIKGGGGSGGGGSGGGGSGGGGSGNWVNVISDLKKIEDLIQSMHIDATLYTESDVHPSCKVTAMKCFLLELQVISLESGDASIHNTVQDLIILANNSLSSNGNVTESGCKECEELEEKNIKEFLQSFVHIVQMFINTS
heavy: QVQLQESGPGLVKPSETLSLTCAVYGDSITSGYWNWIRKPPGKGLEYIGYISYTGSTYQNPSLKSRITMSRDTSKNQYYLKLSSVTAADTAVYYCARSRAWIRTYFDYWGQGTLVTVSSASTKGPSVFPLAPSSKSTSGGTAALGCLVKDYFPEPVTVSWNSGALTSGVHTFPAVLQSSGLYSLSSVVTVPSSSLGTQTYICNVNHKPSNTKVDKRVEPKSCDKTHTCPPCPAPELLGGPSVFLFPPKPKDTLMISRTPEVTCVVVDVSHEDPEVKFNWYVDGVEVHNAKTKPREEQYNSTYRVVSVLTVLHQDWLNGKEYKCKVSNKALPAPIEKTISKAKGQPREPQVYTLPPSREEMTKNQVSLWCLVKGFYPSDIAVEWESNGQPENNYDTTPPVLDSDGSFFLYSDLTVDKSRWQQGNVFSCSVMHEALHNHYTQKSLSLSPGK
light: DIQMTQSPSSLSASVGDRVTITCSVSSSISSSNLHWYQQKPGKAPKPWIYGTSNLASGVPSRFSGSGSGTDYTLTISSLQPEDFATYYCQQWSSYPLTFGQGTKLEIKRTVAAPSVFIFPPSDEQLKSGTASVVCLLNNFYPREAKVQWKVDNALQSGNSQESVTEQDSKDSTYSLSSTLTLSKADYEKHKVYACEVTHQGLSSPVTKSFNRGEC
B3 came in with an EC50 in test [1] of 2.39 nM.

B4: R1072: TIGIT_VH_IL15RA/TIGIT_VL_IL15/PD-L1-Fab (bispecific antibody)
chain 1: QVQLVQSGAEVKKPGSSVKVSCKASGYSFTSYWMNWVRQAPGQGLEWIGMIRPSDSETRLNQMFKDRVTITVDKSTSTAYMELSSLRSEDTAVYYCAGIHDYGHGAYWGQGTLVTVSSGGGGSGGGGSGGGGSGGGGSGITCPPPMSVEHADIWVKSYSLYSRERYICNSGFKRKAGTSSLTECVLNKATNVAHWTTPSLKCIRDPALVHQRPAPPSTVTTAGVTPQPESLSPSGKEPAASSPSSNNTAATTAAIVPGSQLMPSKSPSTGTTEISSHESSHGTPSQTTAKNWELTASASHQPPGVYPQGHSDTTEPKSSDKTHTCPPCPAPELLGGPSVFLFPPKPKDTLMISRTPEVTCVVVDVSHEDPEVKFNWYVDGVEVHNAKTKPREEQYNSTYRVVSVLTVLHQDWLNGKEYKCKVSNKALPAPIEKTISKAKGQPREPQVYTLPPSREEMTKNQVSLTCRVKGFYPSDIAVEWESNGQPENNYKTTPPVLKSDGSFFLASKLTVDKSRWQQGNVFSCSVMHEALHNHYTQKSLSLSPGK
chain 2: DIQMTQSPSSLSASVGDRVTITCRASENIYSNLAWYQQKPGKSPKLLVYAASHLPDGVPSRFSGSGSGTDYSLTISSLQPEDFATYYCQHFWGTPRTFGQGTKLEIKGGGGSGGGGSGGGGSGGGGSGNWVNVISDLKKIEDLIQSMHIDATLYTESDVHPSCKVTAMKCFLLELQVISLESGDASIHNTVQDLIILANNSLSSNGNVTESGCKECEELEEKNIKEFLQSFVHIVQMFINTS
heavy: QVQLQESGPGLVKPSETLSLTCAVYGDSITSGYWNWIRKPPGKGLEYIGYISYTGSTYQNPSLKSRITMSRDTSKNQYYLKLSSVTAADTAVYYCARSRAWIRTYFDYWGQGTLVTVSSASTKGPSVFPLAPSSKSTSGGTAALGCLVKDYFPEPVTVSWNSGALTSGVHTFPAVLQSSGLYSLSSVVTVPSSSLGTQTYICNVNHKPSNTKVDKRVEPKSCDKTHTCPPCPAPELLGGPSVFLFPPKPKDTLMISRTPEVTCVVVDVSHEDPEVKFNWYVDGVEVHNAKTKPREEQYNSTYRVVSVLTVLHQDWLNGKEYKCKVSNKALPAPIEKTISKAKGQPREPQVYTLPPSREEMTKNQVSLWCLVKGFYPSDIAVEWESNGQPENNYDTTPPVLDSDGSFFLYSDLTVDKSRWQQGNVFSCSVMHEALHNHYTQKSLSLSPGK
light: DIQMTQSPSSLSASVGDRVTITCSVSSSISSSNLHWYQQKPGKAPKPWIYGTSNLASGVPSRFSGSGSGTDYTLTISSLQPEDFATYYCQQWSSYPLTFGQGTKLEIKRTVAAPSVFIFPPSDEQLKSGTASVVCLLNNFYPREAKVQWKVDNALQSGNSQESVTEQDSKDSTYSLSSTLTLSKADYEKHKVYACEVTHQGLSSPVTKSFNRGEC
For the molecule B4, the EC50 is 2 nM in test [2], 2.08 nM in test [1] and 3.73 nM in test [3].

B5: R0968 (PD-L1 monoclonal antibody) (antibody, V domains shown)
VH: QVQLQESGPGLVKPSETLSLTCAVYGDSITSGYWNWIRKPPGKCLEYIGYISYTGSTYQNPSLKSRITMSRDTSKNQYYLKLSSVTAADTAVYYCARSRAWIRTYFDYWGQGTLVTVSS
VL: DIQMTQSPSSLSASVGDRVTITCSVSSSISSSNLHWYQQKPGKAPKPWIYGTSNLASGVPSRFSGSGSGTDYTLTISSLQPEDFATYYCQQWSSYPLTFGCGTKLEIK
On to B5, for which the EC50 stood at 2.01 nM in test [2] and 2.91 nM in test [1].
